Source: article PMC12674617

B1: full-length BICD2 tagged on the C-terminus with mini-TurboID (BICD2-mTrbo) [human] / Dynein intermediate chain (DYNC1I1) [human (endogenous in HEK293)] (parent)
chain 1: MSAPSEEEEYARLVMEAQPEWLRAEVKRLSHELAETTREKIQAAEYGLAVLEEKHQLKLQFEELEVDYEAIRSEMEQLKEAFGQAHTNHKKVAADGESREESLIQESASKEQYYVRKVLELQTELKQLRNVLTNTQSENERLASVAQELKEINQNVEIQRGRLRDDIKEYKFREARLLQDYSELEEENISLQKQVSVLRQNQVEFEGLKHEIKRLEEETEYLNSQLEDAIRLKEISERQLEEALETLKTEREQKNSLRKELSHYMSINDSFYTSHLHVSLDGLKFSDDAAEPNNDAEALVNGFEHGGLAKLPLDNKTSTPKKEGLAPPSPSLVSDLLSELNISEIQKLKQQLMQMEREKAGLLATLQDTQKQLEHTRGSLSEQQEKVTRLTENLSALRRLQASKERQTALDNEKDRDSHEDGDYYEVDINGPEILACKYHVAVAEAGELREQLKALRSTHEAREAQHAEEKGRYEAEGQALTEKVSLLEKASRQDRELLARLEKELKKVSDVAGETQGSLSVAQDELVTFSEELANLYHHVCMCNNETPNRVMLDYYREGQGGAGRTSPGGRTSPEARGRRSPILLPKGLLAPEAGRADGGTGDSSPSPGSSLPSPLSDPRREPMNIYNLIAIIRDQIKHLQAAVDRTTELSRQRIASQELGPAVDKDKEALMEEILKLKSLLSTKREQITTLRTVLKANKQTAEVALANLKSKYENEKAMVTETMMKLRNELKALKEDAATFSSLRAMFATRCDEYITQLDEMQRQLAAAEDEKKTLNSLLRMAIQQKLALTQRLELLELDHEQTRRGRAKAAPKTKPATPSL
chain 2: MSDKSDLKAELERKKQRLAQIREEKKRKEEERKKKEADMQQKKEPVQDDSDLDRKRRETEALLQSIGISPEPPLVQPLHFLTWDTCYFHYLVPTPMSPSSKSVSTPSEAGSQDSGDLGPLTRTLQWDTDPSVLQLQSDSELGRRLHKLGVSKVTQVDFLPREVVSYSKETQTPLATHQSEEDEEDEEMVESKVGQDSELENQDKKQEVKEAPPRELTEEEKQQILHSEEFLIFFDRTIRVIERALAEDSDIFFDYSGRELEEKDGDVQAGANLSFNRQFYDEHWSKHRVVTCMDWSLQYPELMVASYNNNEDAPHEPDGVALVWNMKFKKTTPEYVFHCQSSVMSVCFARFHPNLVVGGTYSGQIVLWDNRSHRRTPVQRTPLSAAAHTHPVYCVNVVGTQNAHNLITVSTDGKMCSWSLDMLSTPQESMELVYNKSKPVAVTGMAFPTGDVNNFVVGSEEGTVYTACRHGSKAGIGEVFEGHQGPVTGINCHMAVGPIDFSHLFVTSSFDWTVKLWTTKHNKPLYSFEDNADYVYDVMWSPVHPALFACVDGMGRLDLWNLNNDTEVPTASVAIEGASALNRVRWAQAGKEVAVGDSEGRIWVYDVGELAVPHNDEWTRFARTLVEIRANRADSEEEGTVELSA

Variants of: B1
Assay: co-immunoprecipitation (V5 trap beads) with western blot quantification
Settings: parent: 1, read off a plot

| Variant | ratio to parent |
| --- | --- |
| chain 1 N188T | 1.8 |
| chain 1 R694C | 5.1 |
| chain 1 R747C | 4.6 |
